Measurements reported in US20080070791A1 (ZEPHYR PROTEOMIX, published 2008).

Biological target: T1, α4β1 integrin expressed on Jurkat cells (human, UniProt P13612 34-1032; P05556 21-798)
T1 construct: whole, on cells; Fluorescence-labeled Jurkat cells applied to the microarray; also called receptor recognizing the CS1 peptide
Experiment: cell adhesion of labeled Jurkat cells on microarray
Procedure: Jurkat T-cells, a human leukemia line, were grown under the appropriate growing conditions. Shortly before the adherence assay, cells were washed with 5 mM EDTA in Tris-buffered saline (TBS, 10 mM Tris-HCl, pH 7.4, 150 mM NaCl) and then incubated with Cyto 82 (2 μM final concentration) for 30 min under continuous agitation. Labeled cells were washed twice with the same buffer and applied directly on the fabricated microarray slides.
The model of interaction chosen for this purpose was α4β1-CS1-interaction model. α4β1 is an integrin expressed by several types of adherent cells and can mediate cell matrix contact trough the known ligand fibronectin. […] The slides were washed extensively and the interaction was scanned by the microarray scanner (FIG. 12).

T1 sequence (P13612 34-1032, chain 1 of 2): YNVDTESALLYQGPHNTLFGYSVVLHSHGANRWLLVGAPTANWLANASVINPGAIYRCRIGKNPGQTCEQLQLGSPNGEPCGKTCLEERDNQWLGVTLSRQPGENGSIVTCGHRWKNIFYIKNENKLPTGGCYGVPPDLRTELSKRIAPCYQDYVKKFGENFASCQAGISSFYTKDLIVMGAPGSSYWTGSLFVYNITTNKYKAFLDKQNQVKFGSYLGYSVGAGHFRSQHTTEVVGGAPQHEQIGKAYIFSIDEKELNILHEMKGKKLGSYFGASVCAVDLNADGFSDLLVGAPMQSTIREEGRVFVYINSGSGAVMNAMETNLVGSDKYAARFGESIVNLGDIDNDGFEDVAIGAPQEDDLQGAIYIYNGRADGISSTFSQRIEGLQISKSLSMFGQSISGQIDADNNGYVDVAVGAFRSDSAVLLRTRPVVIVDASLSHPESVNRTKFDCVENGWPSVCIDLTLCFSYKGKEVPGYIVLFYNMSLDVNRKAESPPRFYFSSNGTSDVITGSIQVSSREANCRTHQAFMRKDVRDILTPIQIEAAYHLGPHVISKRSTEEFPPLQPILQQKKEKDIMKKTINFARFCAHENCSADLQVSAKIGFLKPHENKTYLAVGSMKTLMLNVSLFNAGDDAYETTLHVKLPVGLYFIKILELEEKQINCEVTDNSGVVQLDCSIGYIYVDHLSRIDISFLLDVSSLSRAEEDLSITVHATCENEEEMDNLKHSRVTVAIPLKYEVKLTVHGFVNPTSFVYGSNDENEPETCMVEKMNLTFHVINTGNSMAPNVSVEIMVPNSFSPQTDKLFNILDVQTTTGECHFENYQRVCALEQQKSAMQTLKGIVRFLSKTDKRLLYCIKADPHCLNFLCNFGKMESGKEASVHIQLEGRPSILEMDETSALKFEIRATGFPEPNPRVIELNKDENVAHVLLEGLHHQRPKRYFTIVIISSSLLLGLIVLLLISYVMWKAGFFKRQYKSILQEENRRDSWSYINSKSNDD
T1 sequence (P05556 21-798, chain 2 of 2): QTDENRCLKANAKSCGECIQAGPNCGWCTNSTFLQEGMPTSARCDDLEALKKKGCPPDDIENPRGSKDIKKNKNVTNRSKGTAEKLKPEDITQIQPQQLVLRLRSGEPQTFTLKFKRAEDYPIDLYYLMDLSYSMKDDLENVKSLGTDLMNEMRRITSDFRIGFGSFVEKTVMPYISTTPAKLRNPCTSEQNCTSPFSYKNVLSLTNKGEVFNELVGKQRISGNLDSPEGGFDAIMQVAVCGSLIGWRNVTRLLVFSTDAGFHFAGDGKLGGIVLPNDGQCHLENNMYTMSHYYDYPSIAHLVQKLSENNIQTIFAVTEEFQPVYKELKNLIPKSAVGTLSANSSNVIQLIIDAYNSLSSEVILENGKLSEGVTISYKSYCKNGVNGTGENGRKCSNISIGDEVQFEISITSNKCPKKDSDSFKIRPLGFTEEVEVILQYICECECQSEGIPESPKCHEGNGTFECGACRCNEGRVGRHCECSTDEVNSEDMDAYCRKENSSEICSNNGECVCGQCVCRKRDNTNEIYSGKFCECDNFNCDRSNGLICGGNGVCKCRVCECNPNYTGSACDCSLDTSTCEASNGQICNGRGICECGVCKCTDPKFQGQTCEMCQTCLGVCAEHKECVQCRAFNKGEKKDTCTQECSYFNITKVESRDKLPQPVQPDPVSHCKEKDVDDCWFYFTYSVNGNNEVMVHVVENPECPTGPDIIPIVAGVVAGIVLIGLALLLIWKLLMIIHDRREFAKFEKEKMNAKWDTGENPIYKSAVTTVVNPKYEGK

B1: recombinant protein comprising the cellulose binding region of SEQ ID NO:4 (other)
chain: NATPTKGATPTNTATPTKSATATPTRPSVPTNTPTNTPANTPVSGNLKVEFYNSNPSDTTNSINPQFKVTNTGSSAIDLSKLTLRYYYTVDGQKDQTFWCDHAAIIGSNGSYNGITSNVKGTFVKMSSSTNNADTYLEISFTGGTLEPGAHVQIQGRFAKNDWSNYTQSNDYSFKSASQFVEWDQVTAYLNGVLVWGKEPGGSVVPSTQPVTTPPATTKPPATTKPPATTIPPSDDPNA
B1: no binding (tested: highest array concentration).
